Target: CD3 (human) (UniProt P07766)
Experiment: cell-based or functional assay

UniProt P07766, sequence (P07766 23-207): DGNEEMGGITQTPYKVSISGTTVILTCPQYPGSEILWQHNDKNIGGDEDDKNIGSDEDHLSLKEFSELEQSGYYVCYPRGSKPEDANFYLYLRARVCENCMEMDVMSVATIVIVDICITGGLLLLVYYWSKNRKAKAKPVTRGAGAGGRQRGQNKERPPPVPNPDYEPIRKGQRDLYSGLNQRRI

Row | Substance | Transduction efficiencies as measured by CD3+GFP+ cells at Day 6
1 | soluble anti-CD3 antibody clone OKT3 | 3.27%
2 | soluble anti-CD3 antibody clone UCHT1 | 0.52%
3 | soluble anti-CD3 antibody clone HIT3A | 4.31%
